Laboratory results from US20250090677A1 (MULTITUDE THERAPEUTICS, published 2025).
Substitutions are numbered along the chain they refer to.

Columns and labels:
[1] = molecular target: T1, CDH6 on the cell surface of OVCAR-3 cells (human ovarian cancer cells) (human, UniProt P55285 54-790); test: flow cytometry (FACS) on OVCAR-3 cells, antibody titration, labelled secondary antibody, MFI
T1 construct: whole, on cells; also called CDH6-positive human ovarian cancer cell line OVCAR-3
T1 sequence (looked up): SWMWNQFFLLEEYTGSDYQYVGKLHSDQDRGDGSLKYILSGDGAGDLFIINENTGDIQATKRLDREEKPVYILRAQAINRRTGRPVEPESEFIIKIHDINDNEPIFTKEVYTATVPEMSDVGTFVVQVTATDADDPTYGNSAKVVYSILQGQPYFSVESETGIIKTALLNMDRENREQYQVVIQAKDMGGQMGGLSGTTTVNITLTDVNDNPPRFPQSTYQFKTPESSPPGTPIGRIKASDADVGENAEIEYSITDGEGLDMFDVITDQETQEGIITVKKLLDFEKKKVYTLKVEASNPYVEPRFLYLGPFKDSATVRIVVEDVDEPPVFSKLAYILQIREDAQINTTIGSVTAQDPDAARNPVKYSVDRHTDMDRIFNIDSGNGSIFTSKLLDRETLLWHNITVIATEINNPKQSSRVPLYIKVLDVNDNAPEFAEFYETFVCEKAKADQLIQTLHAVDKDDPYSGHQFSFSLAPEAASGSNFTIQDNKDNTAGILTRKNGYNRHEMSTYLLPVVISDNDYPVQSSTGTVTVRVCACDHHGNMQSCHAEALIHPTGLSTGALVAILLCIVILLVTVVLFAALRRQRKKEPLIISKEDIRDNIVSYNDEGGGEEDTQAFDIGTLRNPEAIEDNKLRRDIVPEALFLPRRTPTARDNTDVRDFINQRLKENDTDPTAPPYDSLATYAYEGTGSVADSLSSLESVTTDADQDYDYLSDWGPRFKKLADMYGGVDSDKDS
Experimental: The binding EC50 of the humanized antibodies on tumor cell were tested as follow. Human ovarian cancer cell line OVCAR-3(purchased from National Collection of Authenticated Cell Cultures) cell culture was maintained in vitro as independent monolayer cultures at 37° C. in an atmosphere of 5% CO₂. The cells were harvested using trypsin-EDTA partial digestion followed by centrifugation at 1000 rpm for 5 minutes. The cell was resuspended in cold PBS and serial dilution of Ch069707 and CL069707-H1L1, CL069707-H1L2, CL069707-H2L1 and CL069707-H2L2 antibodies were added. Ch069707 antibody was a chimeric antibody. The variable regions were the same as those of CL069707, and the constant region was the same as human IgG1 constant regions (SEQ ID NO: 70 and SEQ ID NO: 71). The cell solutions were mixed, incubated at 4° C. and washed with cold PBS prior to addition of secondary antibody conjugates (for detection purposes). After incubation at 4° C., the cells were washed with PBS, and then subjected to flow cytometry (FACS) analysis.

Human CDH6-ECD-His = molecular target: T2, Human CDH6-ECD-His (human, UniProt P55285 54-615); test: BLI (Octet), antibody on AHC sensor, antigen 3.13-100 nM, 1:1 model
T2 construct: extracellular domain; Bought protein; also called human CDH6-ECD-His recombinant protein; Human CDH6-EC6D-His; not shown: His tag
T2 sequence (looked up): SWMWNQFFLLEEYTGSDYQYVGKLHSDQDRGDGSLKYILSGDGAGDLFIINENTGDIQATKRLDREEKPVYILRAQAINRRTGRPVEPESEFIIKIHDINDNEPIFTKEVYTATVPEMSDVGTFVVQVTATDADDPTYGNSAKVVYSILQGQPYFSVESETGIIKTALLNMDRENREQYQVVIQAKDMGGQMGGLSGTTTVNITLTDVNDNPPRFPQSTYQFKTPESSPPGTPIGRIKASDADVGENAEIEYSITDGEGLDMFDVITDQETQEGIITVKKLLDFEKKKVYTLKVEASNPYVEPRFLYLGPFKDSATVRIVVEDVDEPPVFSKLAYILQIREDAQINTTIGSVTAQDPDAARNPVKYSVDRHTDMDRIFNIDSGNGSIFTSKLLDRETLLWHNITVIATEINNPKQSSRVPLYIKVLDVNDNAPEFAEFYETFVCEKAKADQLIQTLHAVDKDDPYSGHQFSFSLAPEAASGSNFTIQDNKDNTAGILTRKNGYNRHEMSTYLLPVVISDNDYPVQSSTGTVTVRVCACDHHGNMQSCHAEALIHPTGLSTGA
Experimental: (§1) Binding affinities of CL069707-H1L1 and Ch069707 were measured using the Octet® system based on Bio-Layer Interferometry (BLI) technique. Antibodies were loaded to AHC (Anti-hIgG Fc Capture) at 100 nM concentration. […] From the six different binding curves obtained from each antigen concentration, binding constants (KD) were calculated based on the 1:1 binding model. CL069707-H1L1 and Ch069707 binds to human CDH6-ECD-His antigen with similar affinity. CL069707-H1L1 binds to human CDH6-ECD-His and cyno monkey CDH6-ECD-His antigens with similar affinity.

cyno monkey CDH6-ECD-His = molecular target: T3, cyno monkey CDH6-ECD-His (cyno monkey, UniProt A0A2K5TW62 54-615); test: as above
T3 construct: extracellular domain; Bought protein; also called Cyno CDH6-ECD-His; not shown: His tag
T3 sequence: T2 sequence (looked up) with Y300H, H457R
Experimental: as §1

B1: CL069707-H1L1 (antibody, human IgG1, kappa, V domains shown)
VH: EVQLVESGGGLVQPGGSLRLSCAASGFTFTTYAMNWVRQAPGKGLEWVARIRIKNNNYATYYADSVTDRFTISRDDSKNSLYLQMNSLKTEDTAVYYCVRPDYGNYGLAYWGQGTLVTVSS
VL: DIQLTQSPSSLSASVGDRVTITCSASSSISSHYLHWYQQKPGKSPKLLIYRSFYLASGVPSRFSGSGSGTDFTLTISSLQPEDFATYYCQQDIVPLTFGQGTKLEIKR
notes: Humanized IgG1/kappa, produced in 293 cells; also called humanized CL069707-H1L1
EC50 (read off the curve) [1]: ~1 nM
Kd (Human CDH6-ECD-His): 3.08 nM
Kd (cyno monkey CDH6-ECD-His): 2.69 nM
